Here are results for two substances from patent publication US20180044422A1, “TREATING SOLID TUMOR BY TARGETING DECTIN-1 SIGNALING” (New York University, priority 2016, published 2018).

The target in assay [1] is recombinant mouse Galectin-9 (R&D Systems) (mouse) (UniProt O08573). As to the kind of experiment: Control in the bead flow cytometry assay: Dectin-1 IgG Fc beads + rGal-9, stained with the fluorescent isotype antibody instead of αGal-9 (row + + - + -) [cont.) F].
Assay [2] addresses 60S ribosomal protein L18 (mouse) (UniProt P35980). As to the kind of experiment: Dectin-1 Fc affinity purification from KPC cell lysate, mass spectrometry.
The target of assay [3] is Clusterin (mouse) (UniProt Q06890). Described as above.
Sequence of Clusterin (mouse) (Q06890 22-448 limits assumed): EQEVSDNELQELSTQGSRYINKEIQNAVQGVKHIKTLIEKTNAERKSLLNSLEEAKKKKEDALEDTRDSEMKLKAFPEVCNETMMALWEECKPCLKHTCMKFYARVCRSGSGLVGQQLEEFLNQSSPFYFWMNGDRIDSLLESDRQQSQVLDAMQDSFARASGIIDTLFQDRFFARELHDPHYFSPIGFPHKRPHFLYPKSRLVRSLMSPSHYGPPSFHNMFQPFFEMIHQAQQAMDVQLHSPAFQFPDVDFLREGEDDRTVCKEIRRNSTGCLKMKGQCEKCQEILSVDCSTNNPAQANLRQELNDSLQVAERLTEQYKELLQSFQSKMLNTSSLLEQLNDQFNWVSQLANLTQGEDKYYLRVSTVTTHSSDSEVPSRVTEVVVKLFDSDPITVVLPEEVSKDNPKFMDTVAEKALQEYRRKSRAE
The target in assay [4] is Cytochrome b-c1 complex subunit 2, mitochondrial (mouse) (UniProt Q9DB77). The description is as above.
Sequence of Cytochrome b-c1 complex subunit 2, mitochondrial (mouse) (Q9DB77 15-453 limits assumed, one chain of several): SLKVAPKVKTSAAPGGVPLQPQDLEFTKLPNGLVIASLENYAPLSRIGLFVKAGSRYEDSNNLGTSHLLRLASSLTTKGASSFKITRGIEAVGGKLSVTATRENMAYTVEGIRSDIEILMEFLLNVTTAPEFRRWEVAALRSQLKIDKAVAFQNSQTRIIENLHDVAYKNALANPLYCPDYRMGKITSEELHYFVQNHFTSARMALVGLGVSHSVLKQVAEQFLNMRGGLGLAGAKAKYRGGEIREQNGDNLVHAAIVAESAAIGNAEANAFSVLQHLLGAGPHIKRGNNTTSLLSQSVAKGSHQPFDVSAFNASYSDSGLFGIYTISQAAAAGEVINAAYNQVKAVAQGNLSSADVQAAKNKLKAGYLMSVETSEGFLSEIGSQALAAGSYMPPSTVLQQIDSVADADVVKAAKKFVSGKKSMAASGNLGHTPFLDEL
Assay [5] has as its target Dolichyl-diphosphooligosaccharide-protein glycosyltransferase subunit 1 (mouse) (UniProt Q91YQ5). The description is as above.
Assay [6] deals with Eef2 protein (mouse) (UniProt P58252). The assay is described as above.
Assay [7] has as its target Elongation factor 1-alpha 1 (mouse) (UniProt P10126). Described as above.
Assay [8] concerns the target Elongation factor 1-gamma (mouse) (UniProt Q9D8N0). The description is as above.
For assay [9], the target named is Endoplasmin (mouse) (UniProt P08113). Described as above.
Sequence of Endoplasmin (mouse) (P08113 22-802 limits assumed): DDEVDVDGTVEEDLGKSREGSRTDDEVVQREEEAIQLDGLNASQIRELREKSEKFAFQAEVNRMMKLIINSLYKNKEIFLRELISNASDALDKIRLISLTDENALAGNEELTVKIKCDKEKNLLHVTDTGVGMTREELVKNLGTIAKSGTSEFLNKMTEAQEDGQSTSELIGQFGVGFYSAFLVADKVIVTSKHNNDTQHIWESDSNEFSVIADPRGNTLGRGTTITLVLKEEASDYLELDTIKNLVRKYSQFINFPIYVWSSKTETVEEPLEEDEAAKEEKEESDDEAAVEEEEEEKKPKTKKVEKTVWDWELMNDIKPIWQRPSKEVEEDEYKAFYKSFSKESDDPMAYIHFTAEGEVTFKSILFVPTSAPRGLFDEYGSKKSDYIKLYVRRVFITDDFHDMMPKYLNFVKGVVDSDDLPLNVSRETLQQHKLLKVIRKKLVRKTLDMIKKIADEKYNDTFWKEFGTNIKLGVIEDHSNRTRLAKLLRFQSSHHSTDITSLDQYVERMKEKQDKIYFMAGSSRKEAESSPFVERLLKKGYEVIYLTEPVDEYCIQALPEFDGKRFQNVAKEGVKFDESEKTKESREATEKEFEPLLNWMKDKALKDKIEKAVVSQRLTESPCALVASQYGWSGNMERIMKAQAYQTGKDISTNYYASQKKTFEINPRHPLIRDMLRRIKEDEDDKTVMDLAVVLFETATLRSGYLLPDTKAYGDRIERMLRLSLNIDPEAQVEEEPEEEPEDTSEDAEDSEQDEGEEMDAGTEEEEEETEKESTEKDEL
Assay [10] addresses Isoform 2 of Microtubule-associated protein 4 (mouse) (UniProt P27546). The description is as above.
In assay [11] the target is Peroxiredoxin-1 (mouse) (UniProt P35700). The description is as above.
Sequence of Peroxiredoxin-1 (mouse) (P35700 2-199 limits assumed): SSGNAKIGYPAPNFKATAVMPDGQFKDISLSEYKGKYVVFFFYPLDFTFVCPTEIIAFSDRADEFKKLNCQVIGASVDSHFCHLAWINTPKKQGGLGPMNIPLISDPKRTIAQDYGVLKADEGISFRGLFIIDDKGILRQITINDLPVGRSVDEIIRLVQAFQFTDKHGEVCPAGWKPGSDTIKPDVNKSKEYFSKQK
The target of assay [12] is Polyadenylate-binding protein 1 (mouse) (UniProt P29341). The description is as above.
Assay [13] has as its target Probable ATP-dependent RNA helicase DDX17 (mouse) (UniProt Q501J6). The assay is described as above.
The target of assay [14] is Prohibitin (mouse) (UniProt P67778). Described as above.
Sequence of Prohibitin (mouse) (P67778 2-272 limits assumed): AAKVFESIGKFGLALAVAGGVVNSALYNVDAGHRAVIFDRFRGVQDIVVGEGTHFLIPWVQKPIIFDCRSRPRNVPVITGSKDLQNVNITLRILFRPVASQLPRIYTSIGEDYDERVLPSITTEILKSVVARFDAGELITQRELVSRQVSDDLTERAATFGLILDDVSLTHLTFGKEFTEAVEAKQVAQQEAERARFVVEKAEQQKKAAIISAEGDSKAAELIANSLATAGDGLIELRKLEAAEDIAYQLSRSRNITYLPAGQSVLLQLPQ
Assay [15] deals with Putative uncharacterized protein (Sqrdl) (mouse) (UniProt Q9R112). The assay is described as above.
Sequence of Putative uncharacterized protein (Sqrdl) (mouse) (Q9R112 whole entry): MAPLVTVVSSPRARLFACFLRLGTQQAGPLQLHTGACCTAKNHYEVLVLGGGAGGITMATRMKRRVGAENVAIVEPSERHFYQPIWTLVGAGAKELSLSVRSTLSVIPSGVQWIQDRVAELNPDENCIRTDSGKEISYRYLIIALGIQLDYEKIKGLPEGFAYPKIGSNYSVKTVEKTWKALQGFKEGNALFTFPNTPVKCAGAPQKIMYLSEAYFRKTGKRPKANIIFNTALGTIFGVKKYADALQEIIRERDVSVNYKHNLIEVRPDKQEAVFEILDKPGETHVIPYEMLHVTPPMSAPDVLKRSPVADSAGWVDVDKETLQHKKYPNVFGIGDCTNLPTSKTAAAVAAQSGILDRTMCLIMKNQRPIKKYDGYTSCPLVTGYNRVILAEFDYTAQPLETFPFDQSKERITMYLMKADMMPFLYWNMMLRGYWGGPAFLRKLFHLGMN
Assay [16] concerns the target Sodium/potassium-transporting ATPase subunit alpha-1 (mouse) (UniProt Q8VDN2). The assay is described as above.

Sequence of human IgG Fc-conjugated Dectin-1 fusion protein (murine Dectin-1 IgG Fc; fc-mdec1a, InvivoGen) (Q6QLQ4 69-244 limits assumed): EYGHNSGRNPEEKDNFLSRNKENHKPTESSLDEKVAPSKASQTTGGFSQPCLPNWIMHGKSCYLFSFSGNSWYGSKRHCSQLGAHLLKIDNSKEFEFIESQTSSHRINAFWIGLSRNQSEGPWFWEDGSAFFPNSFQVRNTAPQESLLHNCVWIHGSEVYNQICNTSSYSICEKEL
Sequence of Elongation factor 1-gamma (mouse) (Q9D8N0 2-437 limits assumed): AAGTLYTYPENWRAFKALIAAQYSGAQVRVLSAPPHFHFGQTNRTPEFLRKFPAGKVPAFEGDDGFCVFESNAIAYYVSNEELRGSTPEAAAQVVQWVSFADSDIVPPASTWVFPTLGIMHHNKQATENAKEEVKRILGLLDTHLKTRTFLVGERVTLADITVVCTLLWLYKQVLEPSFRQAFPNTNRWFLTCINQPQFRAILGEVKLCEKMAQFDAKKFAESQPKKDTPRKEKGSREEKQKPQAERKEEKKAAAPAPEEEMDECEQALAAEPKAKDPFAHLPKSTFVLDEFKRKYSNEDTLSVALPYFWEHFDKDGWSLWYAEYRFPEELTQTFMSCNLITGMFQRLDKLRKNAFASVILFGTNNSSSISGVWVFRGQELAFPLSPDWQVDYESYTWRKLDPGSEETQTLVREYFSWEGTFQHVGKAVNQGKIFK
Sequence of Probable ATP-dependent RNA helicase DDX17 (mouse) (Q501J6 whole entry): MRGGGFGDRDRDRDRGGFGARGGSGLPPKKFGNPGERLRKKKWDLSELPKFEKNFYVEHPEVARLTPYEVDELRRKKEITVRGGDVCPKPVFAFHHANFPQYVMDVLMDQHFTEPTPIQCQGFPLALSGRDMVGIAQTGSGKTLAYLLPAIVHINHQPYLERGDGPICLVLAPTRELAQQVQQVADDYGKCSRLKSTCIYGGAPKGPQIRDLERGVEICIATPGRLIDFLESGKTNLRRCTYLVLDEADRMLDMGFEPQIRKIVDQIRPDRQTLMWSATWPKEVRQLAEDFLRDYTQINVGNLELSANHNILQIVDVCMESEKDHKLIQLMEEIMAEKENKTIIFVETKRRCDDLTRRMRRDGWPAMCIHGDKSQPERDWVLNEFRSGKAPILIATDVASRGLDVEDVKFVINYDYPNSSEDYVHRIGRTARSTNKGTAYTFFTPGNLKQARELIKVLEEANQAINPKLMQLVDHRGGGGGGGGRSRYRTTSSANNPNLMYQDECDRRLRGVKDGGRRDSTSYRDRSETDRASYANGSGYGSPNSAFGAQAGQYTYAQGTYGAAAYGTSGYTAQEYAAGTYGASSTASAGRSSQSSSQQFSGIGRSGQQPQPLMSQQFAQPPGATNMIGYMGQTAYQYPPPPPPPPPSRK
Sequence of Elongation factor 1-alpha 1 (mouse) (P10126 2-462 limits assumed): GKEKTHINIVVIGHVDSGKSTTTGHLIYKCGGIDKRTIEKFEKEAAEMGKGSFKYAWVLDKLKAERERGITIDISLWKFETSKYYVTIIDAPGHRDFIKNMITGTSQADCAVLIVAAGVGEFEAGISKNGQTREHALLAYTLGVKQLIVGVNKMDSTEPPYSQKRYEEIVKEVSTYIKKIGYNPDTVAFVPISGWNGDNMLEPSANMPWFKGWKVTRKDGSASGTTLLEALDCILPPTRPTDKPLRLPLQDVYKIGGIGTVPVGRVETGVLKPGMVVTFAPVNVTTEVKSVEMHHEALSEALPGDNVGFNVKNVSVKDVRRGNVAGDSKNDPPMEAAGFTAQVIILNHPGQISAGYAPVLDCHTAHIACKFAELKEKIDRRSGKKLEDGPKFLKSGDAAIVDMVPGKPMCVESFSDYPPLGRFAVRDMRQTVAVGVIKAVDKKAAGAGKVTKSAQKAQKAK
Sequence of Dolichyl-diphosphooligosaccharide-protein glycosyltransferase subunit 1 (mouse) (Q91YQ5 26-608 limits assumed): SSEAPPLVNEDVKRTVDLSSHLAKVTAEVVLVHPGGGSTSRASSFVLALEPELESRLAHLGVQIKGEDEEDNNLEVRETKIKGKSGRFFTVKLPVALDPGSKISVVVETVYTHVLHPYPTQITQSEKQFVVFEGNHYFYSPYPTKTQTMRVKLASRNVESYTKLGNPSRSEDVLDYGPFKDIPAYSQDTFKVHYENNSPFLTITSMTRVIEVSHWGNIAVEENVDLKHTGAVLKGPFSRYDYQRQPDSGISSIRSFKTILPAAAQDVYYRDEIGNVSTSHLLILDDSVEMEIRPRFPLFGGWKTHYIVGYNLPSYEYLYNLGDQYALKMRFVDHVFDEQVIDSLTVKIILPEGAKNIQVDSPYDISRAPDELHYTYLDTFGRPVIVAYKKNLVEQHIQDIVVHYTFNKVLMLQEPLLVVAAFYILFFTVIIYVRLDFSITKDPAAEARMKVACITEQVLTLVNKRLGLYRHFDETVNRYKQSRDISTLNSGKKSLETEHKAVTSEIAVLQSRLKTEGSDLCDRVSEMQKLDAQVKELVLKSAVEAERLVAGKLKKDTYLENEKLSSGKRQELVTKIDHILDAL

Regarding “fluorescently-conjugated isotype antibody”, in assay [1], the MFI came out at 669.
In the case of “human IgG Fc-conjugated Dectin-1 fusion protein (murine Dectin-1 IgG Fc; fc-mdec1a, InvivoGen) (from UniProt Q6QLQ4 69-244) (Fc fusion)”, the # PSM (IP1) (peptide spectral matches) in assay [2] was 4; in assay [3] it was 8; in assay [4], 8; in assay [5], 7; in [6] it was 23; in assay [7], 23. Moreover, the # PSM (IP1) (peptide spectral matches) in assay [8] came out at 11; in [9] it was 30; in assay [10], 6; in [11], 7; in [12], 13; in assay [13], 7. For the same substance, the # PSM (IP1) (peptide spectral matches) in assay [14] worked out at 5; in assay [15], 6; in [16] it was 13. Besides, the # PSM (IP2) (peptide spectral matches) came to 10 in assay [2]; 9 in assay [3]; 8 in [4]; 14 in [5]; 31 in assay [6]; 48 in [7]. In addition, the # PSM (IP2) (peptide spectral matches) was 11 in [8]; 8 in assay [9]; 23 in [10]; 16 in assay [11]; 92 in assay [12]; 36 in assay [13]. Moreover, the # PSM (IP2) (peptide spectral matches) in assay [14] is 6; in [15], 19; in assay [16] it was 14.
